Source: patent US20140274782A1 (Stanford University, published 2014)

Legend:
[1] = biological target: T1, SEC22B-Vesicle-trafficking protein SEC22b (human, UniProt O75396 1-215); assay: ProtoArray, GST-treated control array;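 also: human protein microarray (about 9500 recombinant proteins) incubated overnight with GST alone plus SAM cofactor as the negative control for G9a SET domain methylation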
T1 sequence (looked up): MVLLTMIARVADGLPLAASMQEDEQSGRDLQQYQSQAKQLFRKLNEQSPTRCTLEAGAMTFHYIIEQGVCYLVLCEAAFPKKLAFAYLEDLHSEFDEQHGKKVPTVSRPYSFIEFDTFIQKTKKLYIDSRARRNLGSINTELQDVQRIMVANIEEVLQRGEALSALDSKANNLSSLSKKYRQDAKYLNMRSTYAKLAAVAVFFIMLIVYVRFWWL

[2] = biological target: T2, C2orf43-chromosome 2 open reading frame 43 (C2orf43) (human, UniProt Q9H6V9 1-325, limits assumed); assay: ProtoArray, GST-treated control array;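 also: human protein microarray (about 9500 recombinant proteins) incubated overnight with GST alone plus SAM cofactor as the negative control for G9a SET domain methylation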
T2 sequence (looked up): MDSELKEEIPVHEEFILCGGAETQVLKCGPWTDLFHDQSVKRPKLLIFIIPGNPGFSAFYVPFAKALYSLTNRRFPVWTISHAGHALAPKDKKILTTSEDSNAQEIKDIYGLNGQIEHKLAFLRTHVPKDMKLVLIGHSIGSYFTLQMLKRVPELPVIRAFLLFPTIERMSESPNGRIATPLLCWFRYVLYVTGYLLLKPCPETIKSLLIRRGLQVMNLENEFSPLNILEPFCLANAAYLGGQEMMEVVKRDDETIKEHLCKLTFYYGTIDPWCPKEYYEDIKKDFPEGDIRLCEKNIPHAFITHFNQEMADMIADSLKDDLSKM

[3] = biological target: T3, CDK5RAP3-CDK5 regulatory subunit-associated protein 3 (human, UniProt Q96JB5 1-506, limits assumed); assay: ProtoArray, GST-treated control array;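 also: human protein microarray (about 9500 recombinant proteins) incubated overnight with GST alone plus SAM cofactor as the negative control for G9a SET domain methylation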
T3 sequence (looked up): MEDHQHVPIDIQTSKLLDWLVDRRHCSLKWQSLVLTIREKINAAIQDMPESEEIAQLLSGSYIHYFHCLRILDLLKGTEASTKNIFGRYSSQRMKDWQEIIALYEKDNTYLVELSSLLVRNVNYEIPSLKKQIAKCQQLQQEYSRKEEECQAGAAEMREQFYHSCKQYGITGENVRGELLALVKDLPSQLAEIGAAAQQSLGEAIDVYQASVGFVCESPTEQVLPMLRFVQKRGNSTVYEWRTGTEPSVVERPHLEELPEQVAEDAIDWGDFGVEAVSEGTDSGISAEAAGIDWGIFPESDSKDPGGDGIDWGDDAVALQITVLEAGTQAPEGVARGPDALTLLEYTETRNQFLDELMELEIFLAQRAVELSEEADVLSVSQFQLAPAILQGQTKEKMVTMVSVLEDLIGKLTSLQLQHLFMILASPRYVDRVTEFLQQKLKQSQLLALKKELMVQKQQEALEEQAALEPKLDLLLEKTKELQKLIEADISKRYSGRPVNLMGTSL

[4] = biological target: T4, SNFT-Jun dimerization protein p21SNFT (SNFT) (human, UniProt Q9NR55 1-127); assay: ProtoArray, GST-treated control array;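 also: human protein microarray (about 9500 recombinant proteins) incubated overnight with GST alone plus SAM cofactor as the negative control for G9a SET domain methylation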
T4 sequence (looked up): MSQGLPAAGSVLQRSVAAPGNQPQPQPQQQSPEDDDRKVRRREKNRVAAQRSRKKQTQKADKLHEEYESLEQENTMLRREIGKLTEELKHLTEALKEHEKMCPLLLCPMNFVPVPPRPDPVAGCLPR

[5] = biological target: T5, RASSF4-Ras association (RaIGDS/AF-6) domain family 4 (RASSF4) (human, UniProt Q9H2L5 1-321, limits assumed); assay: ProtoArray, GST-treated control array
T5 sequence (looked up): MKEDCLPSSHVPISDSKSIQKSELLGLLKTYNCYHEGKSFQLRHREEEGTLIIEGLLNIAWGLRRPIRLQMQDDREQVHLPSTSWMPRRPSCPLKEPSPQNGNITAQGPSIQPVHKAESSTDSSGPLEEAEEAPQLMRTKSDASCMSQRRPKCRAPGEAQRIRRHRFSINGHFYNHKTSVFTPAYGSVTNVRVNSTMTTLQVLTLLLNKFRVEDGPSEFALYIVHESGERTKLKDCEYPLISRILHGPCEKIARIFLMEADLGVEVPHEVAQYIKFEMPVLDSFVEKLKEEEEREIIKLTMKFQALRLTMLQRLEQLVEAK

[6] = biological target: LOC400500, G9a-methylated (human); assay: ProtoArray, G9a array SNR minus GST array SNR
MGC4473, G9a-methylated [7] = biological target: MGC4473, G9a-methylated (human); assay: ProtoArray, G9a array SNR minus GST array SNR
[8] = biological target: LOC145788, G9a-methylated (human); assay: ProtoArray, G9a array SNR minus GST array SNR
[9] = biological target: T6, cDNA clone IMAGE:4623222 product, G9a-methylated (human); assay: ProtoArray, G9a array SNR minus GST array SNR
[10] = biological target: LOC400500, G9a-methylated (human); assay: ProtoArray methylated with G9a SET domain
MGC4473, G9a-methylated [11] = biological target: MGC4473, G9a-methylated (human); assay: ProtoArray methylated with G9a SET domain
[12] = biological target: LOC145788, G9a-methylated (human); assay: ProtoArray methylated with G9a SET domain
[13] = biological target: T6, cDNA clone IMAGE:4623222 product, …; assay: ProtoArray methylated with G9a SET domain

- GST Average SNR [1]: -0.797
- GST Average SNR [2]: -0.147
- GST Average SNR [3]: -0.34
- GST Average SNR [4]: 1.05
- GST Average SNR [5]: 1.16
- G9a-GST [6]: 29.1
- G9a-GST (MGC4473, G9a-methylated [7]): 21.7
- G9a-GST [8]: 13.8
- G9a-GST [9]: 17.8
- G9a Average SNR [10]: 29
- G9a Average SNR (MGC4473, G9a-methylated [11]): 21.7
- G9a Average SNR [12]: 14.1
- G9a Average SNR [13]: 18.8
B1: 3× Flag-3×MBT (designed binder)
chain: EEWSSSQPATGEKKECWSWESYLEEQKAITAPVSLFQDSQAVTHNKNGFKLGMKLEGIDPQHPSMYFILTVAEVCGYRLRLHFDGYSECHDFWVNANSPDIHPAGWFEKTGHKLQPPKGYKEEEFSWSQYLRSTRAQAAPKHLFVSQSHSPPPLGFQVGMKLEAVDRMNPSLVCVASVTDVVDSRFLVHFDNWDDTYDYWCDPSSPYIHPVGWCQKQGKPLTPPQDYPDPDNFCWEKYLEETGASAVPTWAFKVRPPHSFLVNMKLEAVDRRNPALIRVASVEDVEDHRIKIHFDGWSHGYDFWIDADHPDIHPAGWCSKTGHPLQPPLGPREPSSASPGG
notes: also called Flag-tagged 3×MBT; 3xFlag-3xMBT; not shown: made by PreScission cleavage of GST-3× Flag-3×MBT
